In patent US20230382992A1 (Bristol-Myers Squibb, published 2023):

Target: CD64 (UniProt P12314 16-288, limits assumed)
Assay: assay not described

CD64, sequence (P12314 16-288 limits assumed): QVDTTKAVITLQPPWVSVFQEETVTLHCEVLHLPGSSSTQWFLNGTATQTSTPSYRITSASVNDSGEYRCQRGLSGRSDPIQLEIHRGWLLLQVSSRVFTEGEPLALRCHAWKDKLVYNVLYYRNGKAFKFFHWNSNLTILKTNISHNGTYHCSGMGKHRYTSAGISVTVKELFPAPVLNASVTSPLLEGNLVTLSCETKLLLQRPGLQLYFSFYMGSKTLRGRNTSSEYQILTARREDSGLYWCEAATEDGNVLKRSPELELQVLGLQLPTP

binding result: no binding
B1: TIM3.18.IgG1.3 (antibody)
heavy: QLQLQESGPGLVKPSETLSLTCTVSGGSISSRSYYWGWIRQPPGKGLEWIGSIYYSGFTYYQPSLKSRVTISVDTSKNQFSLKLSSVTAADTAVYYCATGGPYGDYAHWFEPWGQGTLVTVSSASTKGPSVFPLAPSSKSTSGGTAALGCLVKDYFPEPVTVSWNSGALTSGVHTFPAVLQSSGLYSLSSVVTVPSSSLGTQTYICNVNHKPSNTKVDKRVEPKSCDKTHTCPPCPAPEAEGAPSVFLFPPKPKDTLMISRTPEVTCVVVDVSHEDPEVKFNWYVDGVEVHNAKTKPREEQYNSTYRVVSVLTVLHQDWLNGKEYKCKVSNKALPAPIEKTISKAKGQPREPQVYTLPPSREEMTKNQVSLTCLVKGFYPSDIAVEWESNGQPENNYKTTPPVLDSDGSFFLYSKLTVDKSRWQQGNVFSCSVMHEALHNHYTQKSLSLSPGK
light: not shown
notes: Effectorless IgG1.3f (L234A, L235E, G237A); It was radioiodinated for the Scatchard assays; also called TIM3.18 (13A3) IgG1.3f (N60Q/D101E)
